The text below walks through data of the supplement of paper PMC10567573.

Sequences and labels used below:
B1: DYRK1B (parent)
chain: ARKYFERLPGGGWTLRRTKELRKD
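Note: lentivirally expressed fusions sorted by FACS into six bins by GFP to DsRed ratio, PSI derived from sequencing read proportions per bin multiplied by bin number.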

This data set covers variants of B1. Description: protein stability index of a GFP-peptide fusion (GPS, HEK-293T) (PSI 1-6); higher = more stable. The note with it: c terminus: a fixed tail appended.
Take ARKYDERLPGGGWTLRRTKELRKD [F5D]: the protein stability index was 3.84.
On to ARKYRERLPGGGWTLRRTKELRKD [F5R], for which the protein stability index was found to be 3.58.
Then ARKYNERLPGGGWTLRRTKELRKD [F5N], with 4.02.
In the case of ARKYSERLPGGGWTLRRTKELRKD [F5S] it was 4.35.
Then ARKYLERLPGGGWTLRRTKELRKD [F5L], with 3.83.
Take ARKYGERLPGGGWTLRRTKELRKD [F5G]: the protein stability index is 3.63.
Take ARKYKERLPGGGWTLRRTKELRKD [F5K]: the protein stability index was 4.25.
Regarding ARKYVERLPGGGWTLRRTKELRKD [F5V], the protein stability index came out at 3.98.
For the variant ARKYYERLPGGGWTLRRTKELRKD [F5Y], the protein stability index stood at 4.08.
As for ARKYAERLPGGGWTLRRTKELRKD [F5A], the protein stability index was determined as 3.86.
In the case of ARKYEERLPGGGWTLRRTKELRKD [F5E] it was 4.26; in that of ARKYHERLPGGGWTLRRTKELRKD [F5H], 3.82.
Consider ARKYIERLPGGGWTLRRTKELRKD [F5I], for which the protein stability index came to 2.91.
On to ARKYQERLPGGGWTLRRTKELRKD [F5Q], for which the protein stability index is 3.71.
Take ARKYMERLPGGGWTLRRTKELRKD [F5M]: the protein stability index stood at 2.98.
As to ERKYFERLPGGGWTLRRTKELRKD [A1E], the protein stability index came to 3.96.
As for GRKYFERLPGGGWTLRRTKELRKD [A1G], the protein stability index is 3.78.
As to VRKYFERLPGGGWTLRRTKELRKD [A1V], the protein stability index stood at 3.19.
KRKYFERLPGGGWTLRRTKELRKD [A1K]: the protein stability index was found to be 4.13.
As for SRKYFERLPGGGWTLRRTKELRKD [A1S], the protein stability index amounted to 3.9.
With QRKYFERLPGGGWTLRRTKELRKD [A1Q], the protein stability index came out at 3.7.
On to NRKYFERLPGGGWTLRRTKELRKD [A1N], for which the protein stability index was 3.69.
Take TRKYFERLPGGGWTLRRTKELRKD [A1T]: the protein stability index was 3.31.
In the case of HRKYFERLPGGGWTLRRTKELRKD [A1H] it was 3.66; in that of YRKYFERLPGGGWTLRRTKELRKD [A1Y], 2.27.
IRKYFERLPGGGWTLRRTKELRKD [A1I]: the protein stability index worked out at 2.47.
For the variant DRKYFERLPGGGWTLRRTKELRKD [A1D], the protein stability index worked out at 4.11.
Regarding PRKYFERLPGGGWTLRRTKELRKD [A1P], the protein stability index worked out at 2.89.
For the variant RRKYFERLPGGGWTLRRTKELRKD [A1R], the protein stability index is 3.19.
As for FRKYFERLPGGGWTLRRTKELRKD [A1F], the protein stability index came to 2.44.
With MRKYFERLPGGGWTLRRTKELRKD [A1M], the protein stability index amounted to 2.84.
With LRKYFERLPGGGWTLRRTKELRKD [A1L], the protein stability index stood at 2.36.
In the case of ARKYFEKLPGGGWTLRRTKELRKD [R7K] it was 3.52; in that of ARKYFEHLPGGGWTLRRTKELRKD [R7H], 3.08; in that of ARKYFEMLPGGGWTLRRTKELRKD [R7M], 3.67.
Take ARKYFEALPGGGWTLRRTKELRKD [R7A]: the protein stability index is 3.3.
ARKYFEDLPGGGWTLRRTKELRKD [R7D]: the protein stability index is 3.21.
In the case of ARKYFEYLPGGGWTLRRTKELRKD [R7Y] it was 3.25.
For the variant ARKYFECLPGGGWTLRRTKELRKD [R7C], the protein stability index is 2.88.
Take ARKYFETLPGGGWTLRRTKELRKD [R7T]: the protein stability index was determined as 2.99.
ARKYFEVLPGGGWTLRRTKELRKD [R7V]: the protein stability index was determined as 3.33.
For the variant ARKYFEPLPGGGWTLRRTKELRKD [R7P], the protein stability index is 3.94.
Take ARKYFELLPGGGWTLRRTKELRKD [R7L]: the protein stability index is 2.77.
For ARKYFEQLPGGGWTLRRTKELRKD [R7Q], the protein stability index came out at 4.13.
Regarding ARKYFEELPGGGWTLRRTKELRKD [R7E], the protein stability index was 4.31.
In the case of ARKYFEWLPGGGWTLRRTKELRKD [R7W], the protein stability index turned out to be 2.81.
Consider ARKYFEGLPGGGWTLRRTKELRKD [R7G], for which the protein stability index amounted to 2.84.
In the case of ARKYFEILPGGGWTLRRTKELRKD [R7I] it was 2.64; in that of ARKYFENLPGGGWTLRRTKELRKD [R7N], 2.83.
Consider ARKYFESLPGGGWTLRRTKELRKD [R7S], for which the protein stability index stood at 3.23.
As for ARKYFEFLPGGGWTLRRTKELRKD [R7F], the protein stability index is 2.41.
On to ARKYFERFPGGGWTLRRTKELRKD [L8F], for which the protein stability index amounted to 2.57.
On to ARKYFERIPGGGWTLRRTKELRKD [L8I], for which the protein stability index was determined as 3.5.
Regarding ARKYFERCPGGGWTLRRTKELRKD [L8C], the protein stability index came out at 3.18.
Regarding ARKYFEREPGGGWTLRRTKELRKD [L8E], the protein stability index was 3.71.
Regarding ARKYFERMPGGGWTLRRTKELRKD [L8M], the protein stability index was 3.47.
Regarding ARKYFERHPGGGWTLRRTKELRKD [L8H], the protein stability index came out at 3.32.
With ARKYFERDPGGGWTLRRTKELRKD [L8D], the protein stability index came to 4.19.
Take AREYFERLPGGGWTLRRTKELRKD [K3E]: the protein stability index worked out at 4.13.
Regarding ARTYFERLPGGGWTLRRTKELRKD [K3T], the protein stability index was 3.55.
For the variant ARSYFERLPGGGWTLRRTKELRKD [K3S], the protein stability index was found to be 3.55.
Regarding ARQYFERLPGGGWTLRRTKELRKD [K3Q], the protein stability index turned out to be 3.67.
As to ARNYFERLPGGGWTLRRTKELRKD [K3N], the protein stability index was 2.5.
Consider ARPYFERLPGGGWTLRRTKELRKD [K3P], for which the protein stability index turned out to be 2.96.
As to ARIYFERLPGGGWTLRRTKELRKD [K3I], the protein stability index is 1.92.
Then ARHYFERLPGGGWTLRRTKELRKD [K3H], with 3.56.
ARRYFERLPGGGWTLRRTKELRKD [K3R]: the protein stability index is 3.9.
Regarding ARWYFERLPGGGWTLRRTKELRKD [K3W], the protein stability index came out at 2.6.
For ARFYFERLPGGGWTLRRTKELRKD [K3F], the protein stability index was found to be 1.98.
For the variant ARGYFERLPGGGWTLRRTKELRKD [K3G], the protein stability index was 3.51.
As to ARMYFERLPGGGWTLRRTKELRKD [K3M], the protein stability index came to 3.12.
Then ARCYFERLPGGGWTLRRTKELRKD [K3C], with 3.24; and ARYYFERLPGGGWTLRRTKELRKD [K3Y], with 2.58.
For the variant ARLYFERLPGGGWTLRRTKELRKD [K3L], the protein stability index stood at 2.48.
For the variant ARAYFERLPGGGWTLRRTKELRKD [K3A], the protein stability index is 3.79.
Then ARVYFERLPGGGWTLRRTKELRKD [K3V], with 2.69; and ANKYFERLPGGGWTLRRTKELRKD [R2N], with 3.55; and AFKYFERLPGGGWTLRRTKELRKD [R2F], with 3.89.
As to ATKYFERLPGGGWTLRRTKELRKD [R2T], the protein stability index was 3.52.
As for AYKYFERLPGGGWTLRRTKELRKD [R2Y], the protein stability index was 3.85.
For the variant APKYFERLPGGGWTLRRTKELRKD [R2P], the protein stability index was 4.56.
For AIKYFERLPGGGWTLRRTKELRKD [R2I], the protein stability index is 2.83.
As to AAKYFERLPGGGWTLRRTKELRKD [R2A], the protein stability index was 3.77.
Regarding ACKYFERLPGGGWTLRRTKELRKD [R2C], the protein stability index was 3.03.
Turning to ASKYFERLPGGGWTLRRTKELRKD [R2S], the protein stability index was determined as 4.28.
With AKKYFERLPGGGWTLRRTKELRKD [R2K], the protein stability index was determined as 4.25.
ADKYFERLPGGGWTLRRTKELRKD [R2D]: the protein stability index worked out at 4.1.
Then AEKYFERLPGGGWTLRRTKELRKD [R2E], with 4.64.
As for AMKYFERLPGGGWTLRRTKELRKD [R2M], the protein stability index is 2.79.
AHKYFERLPGGGWTLRRTKELRKD [R2H]: the protein stability index was determined as 2.73.
On to ALKYFERLPGGGWTLRRTKELRKD [R2L], for which the protein stability index worked out at 2.96.
Then AQKYFERLPGGGWTLRRTKELRKD [R2Q], with 3.33; and AWKYFERLPGGGWTLRRTKELRKD [R2W], with 2.38.
Consider AGKYFERLPGGGWTLRRTKELRKD [R2G], for which the protein stability index was found to be 3.74.
